Source: EP4176934A1, “LIPIDIZED COCAINE- AND AMPHETAMINE-REGULATED TRANSCRIPT PEPTIDE ANALOGUES AS ANTI-OBESITY AND NEUROPROTECTIVE AGENTS” (Ustav organicke chemie a biochemie AV CR, v.v.i., priority 2021, dated 2023)
Bridge positions count the residues as written; N and C are the ends. Square brackets hold non-standard residues; d marks the D form. Ends that are not written are not given here. * marks the point of attachment. Palmitoyl = CCCCCCCCCCCCCCCC(=O)*; Myristoyl = CCCCCCCCCCCCCC(=O)*; Nle = CCCC[C@H](N)C(=O)O; Octanoyl = CCCCCCCC(=O)*

B1: 125I-CART(61-102) (peptide)
peptide: KYGQVPMCDAGEQCAVRKGARIGKLCDCPRGTSCNSFLLKCL
modifications: disulfide 14-34, 8-26, 28-41; ends not checked; also: monoiodinated with 125I, residue not given here

How the values were obtained:
[1] = Stability in rat plasma measured by ELISA; format: in vitro ADME; conditions: 100 ng.ml^-1, 37 °C, 96 hours, EDTA plasma, compared to CART 2S-S
Protocol: Blank rat pooled EDTA plasma was conditioned in an incubator at 37 °C. Plasma was preheated to reach required temperature and then it was spiked with a solution of CART 2S-S and palm-CART analogues (dissolved in aqueous 0.5% formic acid) to a final concentration 100 ng.ml^-1. Duplicates were taken for ELISA analysis, sampling volume was 50 µL. Samples were immediately transferred to -20 °C.
ELISA kit for CARTp (MyBioSource, San Diego, CA, USA) was used in accordance with manufacturer's directions. In addition, external calibration using palm-CART was used. The rat plasma was applied for the calibration to comprise specific influence of different matrices on the immunoanalysis output.

[2] = target: CARTp binding site in PC12 cells (prospective CARTp receptor) (rat); assay: displacement of 125I-CART(61-102) from PC12 cells; range told of the group, this end tied by Table 2
[3] = target: CARTp binding site in PC12 cells (prospective CARTp receptor) (rat); assay: displacement of 125I-CART(61-102) from PC12 cells, Cheng-Prusoff
[4] = target: CARTp binding site in PC12 cells (prospective CARTp receptor) (rat); assay: displacement of 125I-CART(61-102) from PC12 cells, relative to CART(61-102)
[5] = target: CARTp binding site in PC12 cells (prospective CARTp receptor) (rat); assay: radioligand binding on PC12 cells, 10^-10 M tracer
[6] = target: CARTp binding site in PC12 cells (prospective CARTp receptor) (rat); assay: Kd of the radioligand on PC12 cells, used in the Cheng-Prusoff equation; how it was measured is not stated

Molecule | stability in rat plasma [1] | Ki [2] [nM] | Ki [3] [nM] | % binding CART(61-102) [4] [%] | total binding, % of the radioactivity added [5] [%] | Kd [6] [nM]
Palmitoyl-KYGQVP[Nle]ADAGEQCAVRKGARIGKLADCPRGTSCNSFLLKCL (disulfide 14-34, 28-41) [Palm-CART] | higher stability | – | – | – | – | –
Palm-CART [74-94, 86-101] (peptide) | – | 1000 | 1090 | 0.85 | – | –
Myristoyl-KYGQVP[Nle]ADAGEQCAVRKGARIGKLADCPRGTSCNSFLLKCL (disulfide 14-34, 28-41) [Myr-CART] | – | – | 12.1 | 78 | – | –
KYGQVPMCDAGEQCAVRKGARIGKLCDCPRGTSCNSFLLKCL (disulfide 14-34, 8-26, 28-41) [CART(61-102)] | – | – | 9.33 | 100 | – | –
B1 | – | – | – | – | 3 to 8 | 1.49
Octanoyl-KYGQVP[Nle]ADAGEQCAVRKGARIGKLADCPRGTSCNSFLLKCL (disulfide 14-34, 28-41) [Oct-CART] | – | – | 76.1 | 12 | – | –
Palmitoyl-KYGQVP[Nle]ADAGEQCAVRKGARIGKLADCPRGTSCNSFLLKCL (disulfide 14-34, 28-41) [Palm-CART] | – | 1 | 1.43 | 652 | – | –
KYGQVP[Nle]ADAGEQCAVRKGARIGKLADCPRGTSCNSFLLKCL (disulfide 14-34, 28-41) [CART 2S-S] | – | – | 261 | 3.5 | – | –
